The record followed here is PMC12043515, “Stepwise neofunctionalization of the NF-κB family member Rel during vertebrate evolution”.

Residue numbers refer to the chain shown, from its start.

Data set [1] addresses T1, Rel RHR homodimer (UniProt P15307 8-297). The data set can be described thus: EMSA; EMSA: 10 mM Tris-HCl pH 7.5, 150 mM NaCl, 1 mM DTT, 1 mM EDTA, 5% glycerol, 80 ng/ul dI-dC, 200 ng/ul BSA, 4 C; off-rate with 100-fold unlabeled consensus. SPR: 10 mM HEPES pH 7.5, 150 mM NaCl, 3 mM EDTA, 0.005% Tween 20, 10 C. As to conditions: protein: recombinant; chain copies: 2; label: 32P.

The target in data set [2] is T1, Rel RHR homodimer. The data set can be described thus: SPR; less stable than κB2; EMSA: 10 mM Tris-HCl pH 7.5, 150 mM NaCl, 1 mM DTT, 1 mM EDTA, 5% glycerol, 80 ng/ul dI-dC, 200 ng/ul BSA, 4 C; off-rate with 100-fold unlabeled consensus. SPR: 10 mM HEPES pH 7.5, 150 mM NaCl, 3 mM EDTA, 0.005% Tween 20, 10 C. As to conditions: protein: recombinant; chain copies: 2; label: biotin. A general note: Surface plasmon resonance follows binding to a sensor surface in real time, without labels.

Data set [3] concerns the target T1, Rel RHR homodimer. The data set can be described thus: SPR; slower off-rate than on …; EMSA: 10 mM Tris-HCl pH 7.5, 150 mM NaCl, 1 mM DTT, 1 mM EDTA, 5% glycerol, 80 ng/ul dI-dC, 200 ng/ul BSA, 4 C; off-rate with 100-fold unlabeled consensus. SPR: 10 mM HEPES pH 7.5, 150 mM NaCl, 3 mM EDTA, 0.005% Tween 20, 10 C. The note with it: protein: recombinant; chain copies: 2; label: biotin.

Data set [4] deals with T1, Rel RHR homodimer. The data set can be described thus: EMSA; three dimers bound simultaneously; EMSA: 10 mM Tris-HCl pH 7.5, 150 mM NaCl, 1 mM DTT, 1 mM EDTA, 5% glycerol, 80 ng/ul dI-dC, 200 ng/ul BSA, 4 C; off-rate with 100-fold unlabeled consensus. SPR: 10 mM HEPES pH 7.5, 150 mM NaCl, 3 mM EDTA, 0.005% Tween 20, 10 C. The note with it: protein: recombinant; chain copies: 2; label: 32P. A general note: In EMSA bound probe runs differently from free probe, usually more slowly.

The target of data set [5] is RelA RHR homodimer (UniProt Q04207 19-306). Kind of data set: EMSA; only one dimer bound; EMSA: 10 mM Tris-HCl pH 7.5, 150 mM NaCl, 1 mM DTT, 1 mM EDTA, 5% glycerol, 80 ng/ul dI-dC, 200 ng/ul BSA, 4 C; off-rate with 100-fold unlabeled consensus. SPR: 10 mM HEPES pH 7.5, 150 mM NaCl, 3 mM EDTA, 0.005% Tween 20, 10 C. The note with it: protein: recombinant; chain copies: 2; label: 32P.
Sequence of RelA RHR homodimer (Q04207 19-306): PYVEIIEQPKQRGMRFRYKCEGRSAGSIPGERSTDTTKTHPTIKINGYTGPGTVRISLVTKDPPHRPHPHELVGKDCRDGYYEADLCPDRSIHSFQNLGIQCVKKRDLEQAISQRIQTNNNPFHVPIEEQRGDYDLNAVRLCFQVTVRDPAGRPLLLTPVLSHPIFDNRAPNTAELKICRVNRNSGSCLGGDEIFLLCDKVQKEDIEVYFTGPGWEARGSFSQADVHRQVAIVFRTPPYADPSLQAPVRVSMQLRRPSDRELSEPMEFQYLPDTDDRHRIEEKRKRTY

The target in data set [6] is T1, Rel RHR homodimer. Kind of data set: SPR; less stable than κB2 and κB1; EMSA: 10 mM Tris-HCl pH 7.5, 150 mM NaCl, 1 mM DTT, 1 mM EDTA, 5% glycerol, 80 ng/ul dI-dC, 200 ng/ul BSA, 4 C; off-rate with 100-fold unlabeled consensus. SPR: 10 mM HEPES pH 7.5, 150 mM NaCl, 3 mM EDTA, 0.005% Tween 20, 10 C. As to conditions: protein: recombinant; chain copies: 2; label: biotin.

In data set [7] the target is T1, Rel RHR homodimer. Kind of data set: SPR; most stable of Il12b motifs; EMSA: 10 mM Tris-HCl pH 7.5, 150 mM NaCl, 1 mM DTT, 1 mM EDTA, 5% glycerol, 80 ng/ul dI-dC, 200 ng/ul BSA, 4 C; off-rate with 100-fold unlabeled consensus. SPR: 10 mM HEPES pH 7.5, 150 mM NaCl, 3 mM EDTA, 0.005% Tween 20, 10 C. As to conditions: protein: recombinant; chain copies: 2; label: biotin.

T1 sequence (P15307 8-297): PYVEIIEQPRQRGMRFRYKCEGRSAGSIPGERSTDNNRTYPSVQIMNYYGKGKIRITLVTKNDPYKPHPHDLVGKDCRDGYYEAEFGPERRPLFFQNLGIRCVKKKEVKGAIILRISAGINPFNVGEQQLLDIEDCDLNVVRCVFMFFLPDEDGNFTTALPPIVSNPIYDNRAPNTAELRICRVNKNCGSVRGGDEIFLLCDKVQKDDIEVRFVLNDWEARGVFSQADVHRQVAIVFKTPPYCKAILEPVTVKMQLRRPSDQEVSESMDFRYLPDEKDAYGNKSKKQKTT

B1: κB2 EMSA probe (dsDNA)
DNA 1: CCTAACATCAAAAATTCCCCGATGTTAGG
DNA 2: CCTAACATCGGGGAATTTTTGATGTTAGG
In the case of B1, the binding result in data set [1] is “binds”.

B2: κB1 (SPR) (dsDNA)
DNA 1: CCTAACATCAGGAACTTCTTTGATGTTAGG
DNA 2: CCTAACATCAAAGAAGTTCCTGATGTTAGG
With B2, the binding result in data set [2] is reported as “binds”.

B3: SPR GGGGGTTTTT (dsDNA)
DNA 1: CCTAACATCAGGGGGTTTTTTGATGTTAGG
DNA 2: CCTAACATCAAAAAACCCCCTGATGTTAGG
Turning to B3, the binding result in data set [3] is on record as “binds”.

B4: κB3 EMSA probe (dsDNA)
DNA 1: CCTAACATCAAGAATGTTTTTGATGTTAGG
DNA 2: CCTAACATCAAAAACATTCTTGATGTTAGG
B4: in data set [1], the binding result is “binds”.

B5: κB1+2+3 (dsDNA)
DNA 1: AGGAACTTCTTAAAATTCCCCCAGAATGTTTTGACA
DNA 2: TGTCAAAACATTCTGGGGGAATTTTAAGAAGTTCCT
For the molecule B5, the binding result in data set [4] and in data set [5] was “binds” in each case.

B6: κB3 (SPR) (dsDNA)
DNA 1: B4 DNA 1
DNA 2: B4 DNA 2
Regarding B6, the binding result in data set [6] is “binds”.

B7: κB1 EMSA probe (dsDNA)
DNA 1: B2 DNA 1
DNA 2: B2 DNA 2
With B7, in data set [1], the binding result is given as “binds”.

B8: κB2 (SPR) (dsDNA)
DNA 1: B3 DNA 2 with A15T, C16T
DNA 2: B3 DNA 1 with G15A, T16A
Take B8: the binding result in data set [7] was “binds”.
